We go through 5 substances from the supplement of paper PMC5998384.

Data set [1] concerns HeLa Kyoto. The experiment in a line: solubility change mitosis vs G1/S (difference of NP-40 vs SDS log2 ratios) (log2 ratio difference); higher = more soluble in mitosis.
Data set [2] relates to HeLa Kyoto. Nature of the data set: thermal stability score vs G1/S (z-score of summed log2 fold changes over temperatures); higher = more thermally stable than in G1/S.
Data set [3] relates to HeLa Kyoto. The experiment in a line: solubility in G1/S (NP-40 vs SDS abundance) (log2 ratio); higher = more soluble. The conditions noted are these: cell cycle stage: G1/S.
For data set [4], the system named is HeLa Kyoto. The experiment in a line: melting temperature (median over replicates), in situ; higher = more thermally stable.
The mark [5] stands for this setting: cell cycle stage: early G1 (4.5 h after nocodazole release).
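Wherever melting temperature (median over replicates), in situ is given: HeLa Kyoto cells synchronized by double thymidine or nocodazole block, proteins quantified by TMT10plex mass spectrometry, three independent biological replicates.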
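Wherever solubility change mitosis vs G1/S (difference of NP-40 vs SDS log2 ratios) is given: synchronized HeLa Kyoto cells (double thymidine block for G1/S, nocodazole release for mitosis), protein amounts in NP-40 versus SDS lysates quantified by mass spectrometry, three biological replicates.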
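Wherever solubility in G1/S (NP-40 vs SDS abundance) is given: HeLa Kyoto cells arrested at G1/S by double thymidine block, proteins quantified by TMT10plex mass spectrometry in mild NP-40 versus SDS extracts, three biological replicates.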
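Wherever thermal stability score vs G1/S (z-score of summed log2 fold changes over temperatures) is given: synchronized HeLa Kyoto cells, proteins quantified by TMT10plex mass spectrometry, three biological replicates, mitosis taken 0.5 h after nocodazole release, G1/S directly after double thymidine block.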

Chain of ARNT (chain, as listed by the source): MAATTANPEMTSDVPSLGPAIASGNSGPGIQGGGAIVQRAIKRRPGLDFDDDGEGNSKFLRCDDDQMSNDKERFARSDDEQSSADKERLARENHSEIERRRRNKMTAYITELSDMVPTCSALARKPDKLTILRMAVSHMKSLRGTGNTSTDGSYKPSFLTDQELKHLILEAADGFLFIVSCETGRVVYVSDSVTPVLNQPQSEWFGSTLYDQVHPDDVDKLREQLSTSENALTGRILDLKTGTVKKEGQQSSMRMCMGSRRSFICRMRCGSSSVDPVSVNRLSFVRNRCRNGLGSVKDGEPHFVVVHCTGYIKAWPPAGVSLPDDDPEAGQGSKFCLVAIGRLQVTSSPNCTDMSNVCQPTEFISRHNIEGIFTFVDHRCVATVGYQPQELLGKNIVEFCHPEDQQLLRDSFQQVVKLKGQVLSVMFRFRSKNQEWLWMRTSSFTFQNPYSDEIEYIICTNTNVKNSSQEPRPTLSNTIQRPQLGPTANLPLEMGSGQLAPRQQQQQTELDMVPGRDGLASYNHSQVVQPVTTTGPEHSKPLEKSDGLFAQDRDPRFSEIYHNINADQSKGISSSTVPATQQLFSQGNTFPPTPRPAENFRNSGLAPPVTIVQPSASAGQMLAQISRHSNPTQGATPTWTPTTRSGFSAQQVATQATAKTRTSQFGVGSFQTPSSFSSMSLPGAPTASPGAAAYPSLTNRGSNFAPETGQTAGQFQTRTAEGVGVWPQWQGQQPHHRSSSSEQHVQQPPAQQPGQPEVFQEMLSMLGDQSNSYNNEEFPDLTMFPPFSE

As for “MMAAEAGSEEGGPVTAGAGGGGAAAGSSAYPAVCRVKIPAALPVAAAPYPGLVETGVAGTLGGGAALGSEFLGAGSVAGALGGAGLTGGGTAAGVAGAAAGVAGAAVAGPSGDMALTKLPTSLLAETLGPGGGFPPLPPPPYLPPLGAGLGTVDEGDSLDGPEYEEEEVAIPLTAPPTNQWYHGKLDRTIAEERLRQAGKSGSYLIRESDRRPGSFVLSFLSQMNVVNHFRIIAMCGDYYIGGRRFSSLSDLIGYYSHVSCLLKGEKLLYPVAPPEPVEDRRRVRAILPYTKVPDTDEISFLKGDMFIVHNELEDGWMWVTNLRTDEQGLIVEDLVEEVGREEDPHEGKIWFHGKISKQEAYNLLMTVGQVCSFLVRPSDNTPGDYSLYFRTNENIQRFKICPTPNNQFMMGGRYYNSIGDIIDHYRKEQIVEGYYLKEPVPMQDQEQVLNDTVDGKEIYNTIRRKTKDAFYKNIVKKGYLLKKGKGKRWKNLYFILEGSDAQLIYFESEKRATKPKGLIDLSVCSVYVVHDSLFGRPNCFQIVVQHFSEEHYIFYFAGETPEQAEDWMKGLQAFCNLRKSSPGTSNKRLRQVSSLVLHIEEAHKLPVKHFTNPYCNIYLNSVQVAKTHAREGQNPVWSEEFVFDDLPPDINRFEITLSNKTKKSKDPDILFMRCQLSRLQKGHATDEWFLLSSHIPLKGIEPGSLRVRARYSMEKIMPEEEYSEFKELILQKELHVVYALSHVCGQDRTLLASILLRIFLHEKLESLLLCTLNDREISMEDEATTLFRATTLASTLMEQYMKATATQFVHHALKDSILKIMESKQSCELSPSKLEKNEDVNTNLTHLLNILSELVEKIFMASEILPPTLRYIYGCLQKSVQHKWPTNTTMRTRVVSGFVFLRLICPAILNPRMFNIISDSPSPIAARTLILVAKSVQNLANLVEFGAKEPYMEGVNPFIKSNKHRMIMFLDELGNVPELPDTTEHSRTDLSRDLAALHEICVAHSDELRTLSNERGAQQHVLKKLLAITELLQQKQNQYTKTNDVR [RASA1]”, in data set [1], the “solubility change mitosis (log2)” value was -0.135. The thermal stability score came out at 0.554 in data set [2] (setting [5]) and 0.915 in data set [2] (cell cycle stage: mitosis). Also, in data set [3], the “solubility in G1/S (log2)” value was -0.0958. Besides, the melting temperature was 49.8 °C in data set [4] (cell cycle stage: G1/S) and 50.1 °C in data set [4] (cell cycle stage: mitosis).

For “MSSSPWEPATLRRVFVVGVGMTKFVKPGAENSRDYPDLAEEAGKKALADAQIPYSAVDQACVGYVFGDSTCGQRAIYHSLGMTGIPIINVNNNCATGSTALFMARQLIQGGVAECVLALGFEKMSKGSLGIKFSDRTIPTDKHVDLLINKYGLSAHPVAPQMFGYAGKEHMEKYGTKIEHFAKIGWKNHKHSVNNPYSQFQDEYSLDEVMASKEVFDFLTILQCCPTSDGAAAAILASEAFVQKYGLQSKAVEILAQEMMTDLPSSFEEKSIIKMVGFDMSKEAARKCYEKSGLTPNDIDVIELHDCFSTNELLTYEALGLCPEGQGATLVDRGDNTYGGKWVINPSGGLISKGHPLGATGLAQCAELCWQLRGEAGKRQVPGAKVALQHNLGIGGAVVVTLYKMGFPEAASSFRTHQIEAVPTSSASDGFKANLVFKEIEKKLEEEGEQFVKKIGGIFAFKVKDGPGGKEATWVVDVKNGKGSVLPNSDKKADCTITMADSDFLALMTGKMNPQSAFFQGKLKITGNMGLAMKLQNLQLQPGNAKL [SCP2]”, the “solubility change mitosis (log2)” value in data set [1] turned out to be 0.135. Also, the thermal stability score in data set [2] (setting [5]) was -1.44; in data set [2] (cell cycle stage: mitosis), -2.06. The “solubility in G1/S (log2)” value in data set [3] was determined as 0.587. The melting temperature in data set [4] (cell cycle stage: G1/S) was 54.5 °C; in data set [4] (cell cycle stage: mitosis) it was 54.4 °C.

Regarding ARNT, the “solubility change mitosis (log2)” value in data set [1] was -0.182. Also, the results for the thermal stability score in data set [2] (setting [5]) and in data set [2] (cell cycle stage: mitosis) were 0.603 and 0.868, respectively. The “solubility in G1/S (log2)” value in data set [3] is 0.243. Also, the melting temperature in data set [4] (cell cycle stage: G1/S) is 51.9 °C; in data set [4] (cell cycle stage: mitosis) it was 51.7 °C.

Turning to “MSRLLWRKVAGATVGPGPVPAPGRWVSSSVPASDPSDGQRRRQQQQQQQQQQQQQPQQPQVLSSEGGQLRHNPLDIQMLSRGLHEQIFGQGGEMPGEAAVRRSVEHLQKHGLWGQPAVPLPDVELRLPPLYGDNLDQHFRLLAQKQSLPYLEAANLLLQAQLPPKPPAWAWAEGWTRYGPEGEAVPVAIPEERALVFDVEVCLAEGTCPTLAVAISPSAWYSWCSQRLVEERYSWTSQLSPADLIPLEVPTGASSPTQRDWQEQLVVGHNVSFDRAHIREQYLIQGSRMRFLDTMSMHMAISGLSSFQRSLWIAAKQGKHKVQPPTKQGQKSQRKARRGPAISSWDWLDISSVNSLAEVHRLYVGGPPLEKEPRELFVKGTMKDIRENFQDLMQYCAQDVWATHEVFQQQLPLFLERCPHPVTLAGMLEMGVSYLPVNQNWERYLAEAQGTYEELQREMKKSLMDLANDACQLLSGERYKEDPWLWDLEWDLQEFKQKKAKKVKKEPATASKLPIEGAGAPGDPMDQEDLGPCSEEEEFQQDVMARACLQKLKGTTELLPKRPQHLPGHPGWYRKLCPRLDDPAWTPGPSLLSLQMRVTPKLMALTWDGFPLHYSERHGWGYLVPGRRDNLAKLPTGTTLESAGVVCPYRAIESLYRKHCLEQGKQQLMPQEAGLAEEFLLTDNSAIWQTVEELDYLEVEAEAKMENLRAAVPGQPLALTARGGPKDTQPSYHHGNGPYNDVDIPGCWFFKLPHKDGNSCNVGSPFAKDFLPKMEDGTLQAGPGGASGPRALEINKMISFWRNAHKRISSQMVVWLPRSALPRAVIRHPDYDEEGLYGAILPQVVTAGTITRRAVEPTWLTASNARPDRVGSELKAMVQAPPGYTLVGADVDSQELWIAAVLGDAHFAGMHGCTAFGWMTLQGRKSRGTDLHSKTATTVGISREHAKIFNYGRIYGAGQPFAERLLMQFNHRLTQQEAAEKAQQMYAATKGLRWYRLSDEGEWLVRELNLPVDRTEGGWISLQDLRKVQRETARKSQWKKWEVVAERAWKGGTESEMFNKLESIATSDIPRTPVLGCCISRALEPSAVQEEFMTSRVNWVVQSSAVDYLHLMLVAMKWLFEEFAIDGRFCISIHDEVRYLVREEDRYRAALALQITNLLTRCMFAYKLGLNDLPQSVAFFSAVDIDRCLRKEVTMDCKTPSNPTGMERRYGIPQGEALDIYQIIELTKGSLEKRSQPGP [POLG]”, the “solubility change mitosis (log2)” value in data set [1] was -0.0443. Moreover, the thermal stability score in data set [2] (setting [5]) was 0.521; in data set [2] (cell cycle stage: mitosis), 0.308. For the same substance, the “solubility in G1/S (log2)” value in data set [3] was determined as 0.0107. Also, the melting temperature in data set [4] (cell cycle stage: G1/S) is 50.3 °C; in data set [4] (cell cycle stage: mitosis) it was 50.6 °C.

Regarding “MSNKEGSGGFRKRKHDNFPHNQRREGKDVNSSSPVMLAFKSFQQELDARHDKYERLVKLSRDITVESKRTIFLLHRITSAPDMEDILTESEIKLDGVRQKIFQVAQELSGEDMHQFHRAITTGLQEYVEAVSFQHFIKTRSLISMDEINKQLIFTTEDNGKENKTPSSDAQDKQFGTWRLRVTPVDYLLGVADLTGELMRMCINSVGNGDIDTPFEVSQFLRQVYDGFSFIGNTGPYEVSKKLYTLKQSLAKVENACYALKVRGSEIPKHMLADVFSVKTEMIDQEEGIS [TSNAX]”, the “solubility change mitosis (log2)” value in data set [1] is -0.0987. Also, the thermal stability score in data set [2] (setting [5]) was -0.435; in data set [2] (cell cycle stage: mitosis), -1.45. The “solubility in G1/S (log2)” value in data set [3] was determined as 0.379. Besides, the melting temperature worked out at 54.7 °C in data set [4] (cell cycle stage: G1/S) and 56.3 °C in data set [4] (cell cycle stage: mitosis).
